Laboratory results as given in patent US20180236053A1 (CELLECTIS, published 2018).

What was measured:
[1] = target: CD38 antigen on the surface of cells (U266 CD38+, MOLP8, Daudi, T-ALL cell lines, activated T cells) (human, UniProt P28907 1-300); experiment: cell-based or functional assay
[2] = target: T1, CD38-Fc protein (produced by LakePharma) (UniProt P28907 43-300, limits assumed); experiment: flow cytometry, CD38 Fc staining of CD38/TRAC double KO T cells transduced with rLV (FIG. 27C)
T1 construct: Staining reagent for CAR detection by flow cytometry; also called CD38-Fc fusion protein; not shown: Fc part
Protocol: The parameters are the following: T cells were activated by using Dynabeads CD3-CD28, the culture were made by using medium Xvivo+5% human serum heat inactivated+IL-2 20 ng/ml, a double KO (DKO) CD38-TRAC was performed by using a ratio of 2 μg TALEN mRNA per million of cells (5 million cells/cuvette); the transduction was performed by using rLV from Vectalys(France) at a MOI of 5.
The screening of the 4 CARs 25A10-v1, -v2, 28F5-v1 and -v2 after rLV transduction in DKO T cells has shown that all the CARs were expressed at the T cell surface with a high efficiency (>40%) and 3 of them above 80% (FIG. 27C). RQR8 expression was correlated with CAR expression (FIG. 27A). Most of the T cells were CD38 negative when T cells have been transduced by CD38 CARs (FIG. 27A). It is shown also that 60-85% of T cells endowed with the above 4 CARs were DKO TRAC/CD38 (FIG. 27B).

[3] = target: T1, CD38-Fc protein (produced by LakePharma); experiment: flow cytometry, CD38-Fc fusion protein staining of purified CD38-deficient T cells transfected with CAR mRNA (FIG. 15)
Protocol: T cells were purified from buffy coat samples and activated using anti-CD3/CD28 coated beads and IL-2. CD38-1 TALEN mRNA was transfected in T cells at day 4 after activation, 6 days later CD38 negative cells were purified by using magnetic separation (Miltenyi). The day after, CAR mRNAs were transfected. The CAR expression and degranulation capacity of CART cells were assessed 24 hours after the transfection. CAR expression and cytotoxic capacity of CART cells were assessed 48 hours after the transfection.
All CARs were detected 24 h after transfection except the 25A10-V3 However, the latter expressed anti-CD38 CAR above the background. The 13F11-V2, 25A10-V1, 25A10-V2 and 28F5-V2 were highly expressed (more than 80%).

- ratio of degranulation against U266 CD38+ and U266 CD38- [1]: > 2 ratio
- % of T cells stained by CD38-Fc (CAR expression) [2]: > 40%
- % of T cells stained by CD38-Fc (CAR expression) [3]: > 80%
B1: 28F5-V2 CAR (other)
chain: QIQLVQSGPELKKPGETVKISCKASGYTFTKYGMNWVKQTPGKGLKWMGWINTNSGEPTYAEEFKGRFAFSLETSASTAYLQINNLKNEDTATYFCARGAYYRYDGEVSYYAMDYWGQGTSVTVSSGGGGSGGGGSGGGGSQIILTQSPAIMSASLGERVTMTCTATSSLSSSYLHWYQQKPGSSPKLWIYSTSHLASGVPARFSGGGSGTSYSLTISSMEAEDAATYYCHQYHLSPYTFGGGTKLEIKTTTPAPRPPTPAPTIASQPLSLRPEACRPAAGGAVHTRGLDFACDIYIWAPLAGTCGVLLLSLVITLYCKRGRKKLLYIFKQPFMRPVQTTQEEDGCSCRFPEEEEGGCELRVKFSRSADAPAYQQGQNQLYNELNLGRREEYDVLDKRRGRDPEMGGKPRRKNPQEGLYNELQKDKMAEAYSEIGMKGERRRGKGHDGLYQGLSTATKDTYDALHMQALPPR
notes: Chimeric antigen receptor on T cells; signal peptide left out here
